Measured values: patent US20260125454A1 (SHANGHAI JUNSHI BIOSCIENCES, published 2026)

T1: Biotin-huCGRPaSA (human, not fully specified; biotin (position not given))
T1 construct: exact construct ('aSA') not explained; also called Biotin CGRPaSA; full-length (1-37) CGRP
T1 peptide: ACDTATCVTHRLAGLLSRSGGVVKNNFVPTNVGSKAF

B1: hu219 (antibody, V domains shown)
VH: QVQLVQSGAEVKKPGASVKVSCKASGYTFTDYNMHWVRQAPGQGLEWMGYIYPYNGHTVYNQKFRNRVTLTVDTSSSTAYMELRSLRSDDTAVYYCAREGLGGYWGQGTLVTVSS
VL: DIVLTQSPDSLAVSLGERATINCKASQNIDYDGYTYLNWYQQKPGQPPKVLIYSIFNLESGVPDRFSGSGSGTDFTLTISSLQAEDVAVYYCQQSNEVPYTFGQGTKLEIK
notes: 3H10 HC-2/3E5 LC-1
B2: hu8 (antibody, V domains shown)
VH: QVQLVQSGAEVKKPGASVKVSCKASGYTFTDYNMHWVRQAPGQGLEWMGYIFPYNGVAVYNRKFRSRVTLTIDTSSSTAYMELRSLRSDDTAVYYCAREGLGGYWGQGTLVTVSS
VL: DIVLTQSPDSLAVSLGERATINCKASQNIDFDGYAYMNWYQHKPGQPPKVLIYSVFNLESGVPDRFSGSGSGTDFTLTISSLQAEDVAVYYCQQSHEVPYTFGQGTKLEIK
notes: 1B2 HC-1/1F5 LC1-4
B3: hu11 (antibody, V domains shown)
VH: QVQLVQSGAEVKKPGASVKVSCKASGYTFTDYNMHWVRQAPGQGLEWMGYIFPYNGVAVYNRKFRSRVTLTIDTSSSTAYMELRSLRSDDTAVYYCAREGLGGYWGQGTLVTVSS
VL: DIVLTQSPDSLAVSLGERATINCKASQNIDYDGYTYLNWYQQKPGQPPKVLIYSIFNLESGVPDRFSGSGSGTDFTLTISSLQAEDVAVYYCQQSNEVPYTFGQGTKLEIK
notes: 1B2 HC-1/3E5 LC-1
B4: hu12 (antibody, V domains shown)
VH: QVQLVQSGAEVKKPGASVKVSCKASGYTFTDYNMHWVRQAPGQGLEWMGYIFPYNGVAVYNRKFRSRVTLTIDTSSSTAYMELRSLRSDDTAVYYCAREGLGGYWGQGTLVTVSS
VL: DIVLTQSPDSLAVSLGERATINCKASQNIDYGGYSYMNWYQQKPGQPPKVLIYSVFNLESGVPDRFSGSGSGTDFTLTISSLQAEDVAVYYCQQSNEAPYTFGQGTKLEIK
notes: 1B2 HC-1/3H10 LC2-1
B5: hu24 (antibody, V domains shown)
VH: QVQLVQSGAEVKKPGASVKVSCKASGYTFTDYNMHWVRQAPGQRLEWMGYIFPYNGVAVYNRKFRSRVTLTVDTSSSTAYMELSSLRSEDTAVYYCAREGLGGYWGQGTLVTVSS
VL: DIVLTQSPDSLAVSLGERATINCKASQNIDYDGYTYLNWYQQKPGQPPKVLIYSIFNLESGVPDRFSGSGSGTDFTLTISSLQAEDVAVYYCQQSNEVPYTFGQGTKLEIK
notes: 1B2 HC-2/3E5 LC-1
B6: hu60 (antibody, V domains shown)
VH: QVQLVQSGAEVKKPGASVKVSCKASGYTFTDFNMHWVRQAPGQGLEWMGYIYPYNGDVVYNQNFTNRVTLTVDTSSSTAYMELRSLRSDDTAVYYCAREGLGGYWGQGTLVTVSS
VL: DIVLTQSPDSLAVSLGERATINCKASQNIDFDGYAYMNWYQHKPGQPPKVLIYSVFNLESGVPDRFSGSGSGTDFTLTISSLQAEDVAVYYCQQSHEVPYTFGQGTKLEIK
notes: 1F5 HC-3/1F5 LC1-4
B7: hu102 (antibody, V domains shown)
VH: QVQLVQSGAEVKKPGASVKVSCKASGYTFTDYNMHWVRQAPGQRLEWMGYVYPYNGGSAYNQKFKSRVTLTVDTSSSTAYMELSSLRSEDTAVYYCAREGLGGYWGQGTLVTVSS
VL: DIVLTQSPDSLAVSLGERATINCKASQNIDYDGYTYLNWYQQKPGQPPKVLIYSIFNLESGVPDRFSGSGSGTDFTLTISSLQAEDVAVYYCQQSNEVPYTFGQGTKLEIK
notes: 2A2 HC-1/3E5 LC-1
B8: hu112 (antibody, V domains shown)
VH: QVQLVQSGAEVKKPGASVKVSCKASGYTFTDYNMHWVRQAPGQGLEWMGNIYPYNGGTVYNQKFNNRVTLTVDTSSSTAYMELSRLRSDDTAVYYCAREGLGGYWGQGTLVTVSS
VL: DIVLTQSPDSLAVSLGERATINCKASQNIDFDGYAYMNWYQHKPGQPPKVLIYSVFNLESGVPDRFSGSGSGTDFTLTISSLQAEDVAVYYCQQSHEVPYTFGQGTKLEIK
notes: 2B8 HC1-1/1F5 LC1-4
B9: hu115 (antibody, V domains shown)
VH: QVQLVQSGAEVKKPGASVKVSCKASGYTFTDYNMHWVRQAPGQGLEWMGNIYPYNGGTVYNQKFNNRVTLTVDTSSSTAYMELSRLRSDDTAVYYCAREGLGGYWGQGTLVTVSS
VL: DIVLTQSPDSLAVSLGERATINCKASQNIDYDGYTYLNWYQQKPGQPPKVLIYSIFNLESGVPDRFSGSGSGTDFTLTISSLQAEDVAVYYCQQSNEVPYTFGQGTKLEIK
notes: 2B8 HC1-1/3E5 LC-1
B10: hu116 (antibody, V domains shown)
VH: QVQLVQSGAEVKKPGASVKVSCKASGYTFTDYNMHWVRQAPGQGLEWMGNIYPYNGGTVYNQKFNNRVTLTVDTSSSTAYMELSRLRSDDTAVYYCAREGLGGYWGQGTLVTVSS
VL: DIVLTQSPDSLAVSLGERATINCKASQNIDYGGYSYMNWYQQKPGQPPKVLIYSVFNLESGVPDRFSGSGSGTDFTLTISSLQAEDVAVYYCQQSNEAPYTFGQGTKLEIK
notes: 2B8 HC1-1/3H10 LC2-1
B11: hu125 (antibody, V domains shown)
VH: QVQLVQSGAEVKKPGASVKVSCKASGYTFTDYNMHWVRQAPGQGLEWMGNIYPYNGGTVYNQKFNNRVTLTVDTSSSTAYMELRSLRSDDTAVYYCAREGLGGYWGQGTLVTVSS
VL: DIVLTQSPDSLAVSLGERATINCKASQNIDFDGYAYMNWYQHKPGQPPKVLIYSVFNLESGVPDRFSGSGSGTDFTLTISSLQAEDVAVYYCQQSHEVPYTFGQGTKLEIK
notes: 2B8 HC1-2/1F5 LC1-4
B12: hu138 (antibody, V domains shown)
VH: QVQLVQSGAEVKKPGASVKVSCKASGYTFTDYNMHWVRQAPGQGLEWMGNIYPYNAGTVYNQKFNNRVTLTVDTSSSTAYMELSRLRSDDTAVYYCAREGLGGYWGQGTLVTVSS
VL: DIVLTQSPDSLAVSLGERATINCKASQNIDFDGYAYMNWYQHKPGQPPKVLIYSVFNLESGVPDRFSGSGSGTDFTLTISSLQAEDVAVYYCQQSHEVPYTFGQGTKLEIK
notes: 2B8 HC1-3/1F5 LC1-4
B13: hu141 (antibody, V domains shown)
VH: QVQLVQSGAEVKKPGASVKVSCKASGYTFTDYNMHWVRQAPGQGLEWMGNIYPYNAGTVYNQKFNNRVTLTVDTSSSTAYMELSRLRSDDTAVYYCAREGLGGYWGQGTLVTVSS
VL: DIVLTQSPDSLAVSLGERATINCKASQNIDYDGYTYLNWYQQKPGQPPKVLIYSIFNLESGVPDRFSGSGSGTDFTLTISSLQAEDVAVYYCQQSNEVPYTFGQGTKLEIK
notes: 2B8 HC1-3/3E5 LC-1
B14: hu142 (antibody, V domains shown)
VH: QVQLVQSGAEVKKPGASVKVSCKASGYTFTDYNMHWVRQAPGQGLEWMGNIYPYNAGTVYNQKFNNRVTLTVDTSSSTAYMELSRLRSDDTAVYYCAREGLGGYWGQGTLVTVSS
VL: DIVLTQSPDSLAVSLGERATINCKASQNIDYGGYSYMNWYQQKPGQPPKVLIYSVFNLESGVPDRFSGSGSGTDFTLTISSLQAEDVAVYYCQQSNEAPYTFGQGTKLEIK
notes: 2B8 HC1-3/3H10 LC2-1
B15: hu180 (antibody, V domains shown)
VH: QVQLVQSGAEVKKPGASVKVSCKASGYTFTDYNMHWVRQAPGQGLEWMGYISPYNGGTAYNQKFKFRVTLTVDTSSSTAYMELSRLRSDDTVVYYCAREGLGGYWGQGTLVTVSS
VL: DIVLTQSPDSLAVSLGERATINCKASQNIDYDGYTYLNWYQQKPGQPPKVLIYSIFNLESGVPDRFSGSGSGTDFTLTISSLQAEDVAVYYCQQSNEVPYTFGQGTKLEIK
notes: 3E5 HC-3/3E5 LC-1
B16: hu203 (antibody, V domains shown)
VH: QVQLVQSGAEVKKPGASVKVSCKASGYTFTDYNMHWVRQAPGQGLEWMGYIYPYNGHTVYNQKFRNRVTMTVDTSSSTAYMELRSLRSDDTAVYYCAKEGLGGYWGQGTLVTVSS
VL: DIVLTQSPDSLAVSLGERATINCKASQNIDFDGYAYMNWYQHKPGQPPKVLIYSVFNLESGVPDRFSGSGSGTDFTLTISSLQAEDVAVYYCQQSHEVPYTFGQGTKLEIK
notes: 3H10 HC-1/1F5 LC1-4
B17: hu206 (antibody, V domains shown)
VH: QVQLVQSGAEVKKPGASVKVSCKASGYTFTDYNMHWVRQAPGQGLEWMGYIYPYNGHTVYNQKFRNRVTMTVDTSSSTAYMELRSLRSDDTAVYYCAKEGLGGYWGQGTLVTVSS
VL: DIVLTQSPDSLAVSLGERATINCKASQNIDYDGYTYLNWYQQKPGQPPKVLIYSIFNLESGVPDRFSGSGSGTDFTLTISSLQAEDVAVYYCQQSNEVPYTFGQGTKLEIK
notes: 3H10 HC-1/3E5 LC-1
B18: hu207 (antibody, V domains shown)
VH: QVQLVQSGAEVKKPGASVKVSCKASGYTFTDYNMHWVRQAPGQGLEWMGYIYPYNGHTVYNQKFRNRVTMTVDTSSSTAYMELRSLRSDDTAVYYCAKEGLGGYWGQGTLVTVSS
VL: DIVLTQSPDSLAVSLGERATINCKASQNIDYGGYSYMNWYQQKPGQPPKVLIYSVFNLESGVPDRFSGSGSGTDFTLTISSLQAEDVAVYYCQQSNEAPYTFGQGTKLEIK
notes: 3H10 HC-1/3H10 LC2-1
B19: hu216 (antibody, V domains shown)
VH: QVQLVQSGAEVKKPGASVKVSCKASGYTFTDYNMHWVRQAPGQGLEWMGYIYPYNGHTVYNQKFRNRVTLTVDTSSSTAYMELRSLRSDDTAVYYCAREGLGGYWGQGTLVTVSS
VL: DIVLTQSPDSLAVSLGERATINCKASQNIDFDGYAYMNWYQHKPGQPPKVLIYSVFNLESGVPDRFSGSGSGTDFTLTISSLQAEDVAVYYCQQSHEVPYTFGQGTKLEIK
notes: 3H10 HC-2/1F5 LC1-4

Target: T1, Biotin-huCGRPaSA
Assay: ELISA, supernatant; relative to chimeric C245
Method: Biotin CGRPaSA was diluted with PBS (Hyclone) to 1.0 μg/mL, and the dilution was added to a microplate at 100 μL/well. The plate was let stand in an incubator at 37° C. and coated for 90 min and then washed, and 2% BSA was added to the plate at 200 μL/well. The plate was incubated in an incubator at 37° C. for 90 min and then washed. The humanized antibodies in Table 8 and the reference antibody (chimeric antibody C245) were diluted to 1000 ng/mL with a diluent (2% BSA) with a dilution factor of not more than 10. Then, the chimeric antibodies and the reference antibody were serially 2.5-fold diluted on a sample dilution plate. All the chimeric antibody solutions and the reference antibody solution were added into plates at 100 μL/well, and the plates were incubated in a thermostat incubator at 37° C. for 60 min and washed. An HRP-conjugated goat anti-human antibody IgG (manufacturer: Sigma, Cat. No. A0170; Fc specificity) was diluted 5000-fold with 2% BSA and added into the plates at 100 μL/well, and the plates were incubated in the thermostat incubator at 37° C. for 60 min and washed. Chromogenic reagent TMB was carefully added at 100 μL/well to avoid bubbles, and the system was incubated at 37° C. for 15 min away from light for chromogenic reaction. Finally, a 2 M hydrochloric acid solution was added at 100 μL/well to stop the reaction while avoiding bubbles, and the plates were read on a microplate reader within 10 min (wavelength: 450/620 nm).
In the case of B1, the “Relative binding activity, %” value is reported as 78%. B2 was tested, and the “Relative binding activity, %” value was 72%. In the case of B3, the “Relative binding activity, %” value is reported as 49%. In the case of B4, the “Relative binding activity, %” value is reported as 73%. For B5, the “Relative binding activity, %” value was 73%. In the case of B6, the “Relative binding activity, %” value is reported as 11%. For B7, the “Relative binding activity, %” value was 94%. In the case of B8, the “Relative binding activity, %” value is reported as 14%. With B9 the “Relative binding activity, %” value was 98%. For B10, the “Relative binding activity, %” value was 88%. For B11, the “Relative binding activity, %” value was 34%. For B12, the “Relative binding activity, %” value was 102%. With B13 the “Relative binding activity, %” value was 86%. With B14 the “Relative binding activity, %” value was 84%. In the case of B15, the “Relative binding activity, %” value is reported as 87%. With B16 the “Relative binding activity, %” value was 33%. For B17, the “Relative binding activity, %” value was 70%. With B18 the “Relative binding activity, %” value was 56%. For B19, the “Relative binding activity, %” value was 58%.
